Experimental data as given in the supplement of paper PMC6757056.
± gives the standard deviation of the averaged measurements.

B1: library; a variant is named by its letters at N, in order (parent)
chain: GCUGUCACCGAGAAACUGUGAAGUAUAUCUUAAACCUGGGCACUUAAAAGAUAUAUGGAGUUAGUAGUGCAACCUGCUCGGUCUGAUGAGUCCNNNNNNGGACGAAACAGC

Key:
cyclic di-GMP [1] = variants of: B1; assay: normalized RNA/DNA level without ligand (relative to sTRSVctl = 100) (log10 (% of sTRSVctl)); HEK293T; ligand: cyclic di-GMP (c-di-GMP-II aptamer); higher = less ribozyme self-cleavage, higher mRNA level; settings: reporter: mCherry (pCS4076), ligand present: no
In short: (§1)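 RNA level was computed as RNA reads over DNA reads divided by a spiked-in non-cleaving sequence or by the top sequences, then scaled and log-transformed. Scaling was ×100 with log10, the top group was 25 sequences, and the threshold was ≥100 DNA reads. The reads came from HEK293T cells transfected at 4 µg per 6-well well with ribozyme switch library plasmids (mCherry, or eGFP in some ligand experiments). Total RNA was extracted with EDTA 72 h after transfection, with any ligand added 1 h before it.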

cyclic di-GMP [2] = variants of: B1; assay: normalized RNA/DNA level with ligand (relative to sTRSVctl = 100) (log10 (% of sTRSVctl)); HEK293T; ligand: cyclic di-GMP (c-di-GMP-II aptamer); ligand concentration (+) RNA-Seq: 1 mM; higher = less ribozyme self-cleavage, higher mRNA level; settings: reporter: mCherry (pCS4076), ligand present: yes
In short: as §1

Row | Variant | normalized RNA/DNA level without ligand (log10) (cyclic di-GMP [1]) | normalized RNA/DNA level with ligand (log10) (cyclic di-GMP [2])
1 | GCUGUCACCGAGAAACUGUGAAGUAUAUCUUAAACCUGGGCACUUAAAAGAUAUAUGGAGUUAGUAGUGCAACCUGCUCGGUCUGAUGAGUCCAGCACAGGACGAAACAGC [AGCACA] | 1.58 ± 0.029 | 1.72 ± 0.12
2 | GCUGUCACCGAGAAACUGUGAAGUAUAUCUUAAACCUGGGCACUUAAAAGAUAUAUGGAGUUAGUAGUGCAACCUGCUCGGUCUGAUGAGUCCUAGAACGGACGAAACAGC [UAGAAC] | 1.641 ± 0.014 | 1.82 ± 0.13
3 | GCUGUCACCGAGAAACUGUGAAGUAUAUCUUAAACCUGGGCACUUAAAAGAUAUAUGGAGUUAGUAGUGCAACCUGCUCGGUCUGAUGAGUCCCAAGUGGGACGAAACAGC [CAAGUG] | 1.68 ± 0.045 | 1.84 ± 0.12
4 | GCUGUCACCGAGAAACUGUGAAGUAUAUCUUAAACCUGGGCACUUAAAAGAUAUAUGGAGUUAGUAGUGCAACCUGCUCGGUCUGAUGAGUCCCUAUCGGGACGAAACAGC [CUAUCG] | 1.79 ± 0.047 | 1.88 ± 0.12
5 | GCUGUCACCGAGAAACUGUGAAGUAUAUCUUAAACCUGGGCACUUAAAAGAUAUAUGGAGUUAGUAGUGCAACCUGCUCGGUCUGAUGAGUCCAGGUUGGGACGAAACAGC [AGGUUG] | 1.7 ± 0.022 | 1.77 ± 0.1
6 | GCUGUCACCGAGAAACUGUGAAGUAUAUCUUAAACCUGGGCACUUAAAAGAUAUAUGGAGUUAGUAGUGCAACCUGCUCGGUCUGAUGAGUCCUACUCCGGACGAAACAGC [UACUCC] | 1.76 ± 0.035 | 1.9 ± 0.14
7 | GCUGUCACCGAGAAACUGUGAAGUAUAUCUUAAACCUGGGCACUUAAAAGAUAUAUGGAGUUAGUAGUGCAACCUGCUCGGUCUGAUGAGUCCUGAUUCGGACGAAACAGC [UGAUUC] | 1.71 ± 0.019 | 1.86 ± 0.08
8 | GCUGUCACCGAGAAACUGUGAAGUAUAUCUUAAACCUGGGCACUUAAAAGAUAUAUGGAGUUAGUAGUGCAACCUGCUCGGUCUGAUGAGUCCCGCUGCGGACGAAACAGC [CGCUGC] | 1.806 ± 0.0025 | 1.9 ± 0.092
9 | GCUGUCACCGAGAAACUGUGAAGUAUAUCUUAAACCUGGGCACUUAAAAGAUAUAUGGAGUUAGUAGUGCAACCUGCUCGGUCUGAUGAGUCCACACACGGACGAAACAGC [ACACAC] | 1.633 ± 0.0097 | 1.81 ± 0.09
10 | GCUGUCACCGAGAAACUGUGAAGUAUAUCUUAAACCUGGGCACUUAAAAGAUAUAUGGAGUUAGUAGUGCAACCUGCUCGGUCUGAUGAGUCCUAUCCGGGACGAAACAGC [UAUCCG] | 1.8 ± 0.022 | 1.87 ± 0.095
11 | GCUGUCACCGAGAAACUGUGAAGUAUAUCUUAAACCUGGGCACUUAAAAGAUAUAUGGAGUUAGUAGUGCAACCUGCUCGGUCUGAUGAGUCCAGAUUGGGACGAAACAGC [AGAUUG] | 1.58 ± 0.049 | 1.77 ± 0.081
12 | GCUGUCACCGAGAAACUGUGAAGUAUAUCUUAAACCUGGGCACUUAAAAGAUAUAUGGAGUUAGUAGUGCAACCUGCUCGGUCUGAUGAGUCCUGUGGAGGACGAAACAGC [UGUGGA] | 1.58 ± 0.067 | 1.76 ± 0.062
13 | GCUGUCACCGAGAAACUGUGAAGUAUAUCUUAAACCUGGGCACUUAAAAGAUAUAUGGAGUUAGUAGUGCAACCUGCUCGGUCUGAUGAGUCCCCGUGAGGACGAAACAGC [CCGUGA] | 1.51 ± 0.067 | 1.7 ± 0.078
14 | GCUGUCACCGAGAAACUGUGAAGUAUAUCUUAAACCUGGGCACUUAAAAGAUAUAUGGAGUUAGUAGUGCAACCUGCUCGGUCUGAUGAGUCCUGUUCCGGACGAAACAGC [UGUUCC] | 1.84 ± 0.052 | 1.94 ± 0.14
15 | GCUGUCACCGAGAAACUGUGAAGUAUAUCUUAAACCUGGGCACUUAAAAGAUAUAUGGAGUUAGUAGUGCAACCUGCUCGGUCUGAUGAGUCCCCGCAGGGACGAAACAGC [CCGCAG] | 1.54 ± 0.054 | 1.67 ± 0.12
16 | GCUGUCACCGAGAAACUGUGAAGUAUAUCUUAAACCUGGGCACUUAAAAGAUAUAUGGAGUUAGUAGUGCAACCUGCUCGGUCUGAUGAGUCCUAGCCGGGACGAAACAGC [UAGCCG] | 1.79 ± 0.063 | 1.93 ± 0.12
17 | GCUGUCACCGAGAAACUGUGAAGUAUAUCUUAAACCUGGGCACUUAAAAGAUAUAUGGAGUUAGUAGUGCAACCUGCUCGGUCUGAUGAGUCCCACGCUGGACGAAACAGC [CACGCU] | 1.722 ± 0.0093 | 1.84 ± 0.12
18 | GCUGUCACCGAGAAACUGUGAAGUAUAUCUUAAACCUGGGCACUUAAAAGAUAUAUGGAGUUAGUAGUGCAACCUGCUCGGUCUGAUGAGUCCUCCCACGGACGAAACAGC [UCCCAC] | 1.758 ± 0.0044 | 1.87 ± 0.097
19 | GCUGUCACCGAGAAACUGUGAAGUAUAUCUUAAACCUGGGCACUUAAAAGAUAUAUGGAGUUAGUAGUGCAACCUGCUCGGUCUGAUGAGUCCAACGGCGGACGAAACAGC [AACGGC] | 1.68 ± 0.017 | 1.8 ± 0.071
20 | GCUGUCACCGAGAAACUGUGAAGUAUAUCUUAAACCUGGGCACUUAAAAGAUAUAUGGAGUUAGUAGUGCAACCUGCUCGGUCUGAUGAGUCCGUCGCAGGACGAAACAGC [GUCGCA] | 1.77 ± 0.021 | 1.86 ± 0.09
21 | GCUGUCACCGAGAAACUGUGAAGUAUAUCUUAAACCUGGGCACUUAAAAGAUAUAUGGAGUUAGUAGUGCAACCUGCUCGGUCUGAUGAGUCCGUAUCGGGACGAAACAGC [GUAUCG] | 1.63 ± 0.043 | 1.81 ± 0.098
22 | GCUGUCACCGAGAAACUGUGAAGUAUAUCUUAAACCUGGGCACUUAAAAGAUAUAUGGAGUUAGUAGUGCAACCUGCUCGGUCUGAUGAGUCCUAGUGUGGACGAAACAGC [UAGUGU] | 1.62 ± 0.034 | 1.81 ± 0.13
23 | GCUGUCACCGAGAAACUGUGAAGUAUAUCUUAAACCUGGGCACUUAAAAGAUAUAUGGAGUUAGUAGUGCAACCUGCUCGGUCUGAUGAGUCCUGCGCAGGACGAAACAGC [UGCGCA] | 1.711 ± 0.014 | 1.86 ± 0.061
24 | GCUGUCACCGAGAAACUGUGAAGUAUAUCUUAAACCUGGGCACUUAAAAGAUAUAUGGAGUUAGUAGUGCAACCUGCUCGGUCUGAUGAGUCCCUAUGGGGACGAAACAGC [CUAUGG] | 1.75 ± 0.049 | 1.87 ± 0.09
25 | GCUGUCACCGAGAAACUGUGAAGUAUAUCUUAAACCUGGGCACUUAAAAGAUAUAUGGAGUUAGUAGUGCAACCUGCUCGGUCUGAUGAGUCCCCUCUAGGACGAAACAGC [CCUCUA] | 1.427 ± 0.0066 | 1.68 ± 0.13
26 | GCUGUCACCGAGAAACUGUGAAGUAUAUCUUAAACCUGGGCACUUAAAAGAUAUAUGGAGUUAGUAGUGCAACCUGCUCGGUCUGAUGAGUCCUCUAGGGGACGAAACAGC [UCUAGG] | 1.81 ± 0.049 | 1.88 ± 0.12
